From the supplement of paper PMC10724198
± gives the standard deviation of the averaged measurements.

Legend:
Saccharomyces cerevisiae [1] = test: protein stability index of tFT-peptide fusion (C-terminal peptide) (PSI (0-1 scale)); higher = more stable (slower turnover)
Protocol: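 MPS profiling in S. cerevisiae of the tFT-X12 degron library: putative degron peptides plus stable controls, 12 aa, fused to the C-terminus of a sfGFP-mCherry timer. Cells are FACS-sorted into 8 mCherry/sfGFP bins and deep-sequenced. PSI runs from 0 (unstable) to 1 (stable). Backgrounds are wild type, das1Δ and doa10Δ at 30 °C, and wild type, das1Δ, cdc34-1 and cdc53-1 at 37 °C; 2-3 technical replicates each.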

Saccharomyces cerevisiae [2] = test: as above; details: genetic background: wild type; temperature: 30 C
[3] = genetic background: cdc34-1, temperature: 37 C
[4] = genetic background: cdc53-1, temperature: 37 C
[5] = genetic background: das1 deletion, temperature: 30 C
[6] = genetic background: das1 deletion, temperature: 37 C
[7] = genetic background: doa10 deletion, temperature: 30 C
[8] = genetic background: wild type, temperature: 30 C
[9] = genetic background: wild type, temperature: 37 C
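Also: PSI is a weighted mean of sequencing reads over stability bins, variants kept only with over 10 reads, mCherry proximal and sfGFP distal, peptide attached via GGGS linker.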

Sequence	protein stability index (Saccharomyces cerevisiae [1]; [3])	protein stability index (Saccharomyces cerevisiae [1]; [4])	protein stability index (Saccharomyces cerevisiae [1]; [5])	protein stability index (Saccharomyces cerevisiae [1]; [6])	protein stability index (Saccharomyces cerevisiae [1]; [7])	protein stability index (Saccharomyces cerevisiae [1]; [8])	protein stability index (Saccharomyces cerevisiae [1]; [9])	protein stability index (Saccharomyces cerevisiae [2])
SVLRCPVILLAY	0.0423 ± 0.031	0.0232 ± 0.0025	0.0735 ± 0.036	0.0681 ± 0.008	0.0717 ± 0.0093	0.078 ± 0.017	0.0527 ± 0.02	0.0975 ± 0.012
SVSFFSLCTSSL	0.511 ± 0.033	0.596 ± 0.006	0.506 ± 0.023	0.541 ± 0.011	0.521 ± 0.033	0.507 ± 0.02	0.511 ± 0.021	0.487 ± 0.012
SWTAYSYQWVFF	0.407 ± 0.025	0.57 ± 0.0072	0.4972 ± 0.0028	0.577 ± 0.016	0.0469 ± 0.0093	0.0403 ± 0.018	0.215 ± 0.031	0.128 ± 0.014
SWVSVLSELLAC	0.224 ± 0.014	0.249 ± 0.017	0.251 ± 0.045	0.362 ± 0.0082	0.204 ± 0.0092	0.238 ± 0.025	0.2873 ± 0.0022	0.336 ± 0.022
SYCFCCCVLFWG	0.432 ± 0.019	0.517 ± 0.011	0.352 ± 0.028	0.559 ± 0.056	0.325 ± 0.011	0.357 ± 0.017	0.502 ± 0.018	0.407 ± 0.026
SYFSVTLFFTVI	0.281 ± 0.015	0.383 ± 0.0059	0.298 ± 0.032	0.419 ± 0.0015	0.252 ± 0.02	0.272 ± 0.016	0.386 ± 0.024	0.38872 ± 0.00027
SYRFFLFLAVFV	0.555 ± 0.014	0.554 ± 0.048	0.451 ± 0.034	0.574 ± 0.0017	0.442 ± 0.017	0.44 ± 0.012	0.5379 ± 0.0032	0.461 ± 0.021
SYVFCYICGVQS	0.607 ± 0.038	0.592 ± 0.025	0.411 ± 0.03	0.596 ± 0.015	0.338 ± 0.031	0.372 ± 0.018	0.552 ± 0.025	0.428 ± 0.06
SYVRLDLFFFLG	0.517 ± 0.069	0.591 ± 0.03	0.491 ± 0.012	0.5727 ± 0.0048	0.46 ± 0.038	0.472 ± 0.026	0.5357 ± 0.0037	0.568 ± 0.11
TGVPNPSVAVMC	0.639 ± 0.039	0.623 ± 0.023	0.457 ± 0.025	0.6489 ± 0.005	0.446 ± 0.019	0.475 ± 0.028	0.625 ± 0.0069	0.498 ± 0.098
TIYGYEVTRKIG	0.645 ± 0.068	0.78 ± 0.025	0.621 ± 0.019	0.732 ± 0.031	0.0795 ± 0.011	0.11 ± 0.021	0.145 ± 0.018	0.155 ± 0.0023
TLLAFLIYLCFL	0.496 ± 0.023	0.515 ± 0.061	0.403 ± 0.023	0.546 ± 0.0095	0.402 ± 0.017	0.365 ± 0.028	0.499 ± 0.043	0.416 ± 0.012
TPVIPLIRVRDC	0.59 ± 0.034	0.701 ± 0.012	0.568 ± 0.017	0.691 ± 0.021	0.171 ± 0.011	0.225 ± 0.02	0.456 ± 0.0093	0.29 ± 0.023
TTGLLPSAYIWS	0.758 ± 0.05	0.753 ± 0.024	0.6494 ± 0.0043	0.768 ± 0.033	0.677 ± 0.0094	0.667 ± 0.028	0.716 ± 0.04	0.762 ± 0.011
TVWRRIRHACAH	0.597 ± 0.023	0.683 ± 0.0099	0.596 ± 0.013	0.702 ± 0.035	0.193 ± 0.0082	0.226 ± 0.015	0.365 ± 0.0047	0.376 ± 0.038
VAVYVGVGVSLG	0.454 ± 0.045	0.523 ± 0.048	0.311 ± 0.03	0.546 ± 0.004	0.2819 ± 0.0021	0.33 ± 0.017	0.511 ± 0.039	0.423 ± 0.0046
VAWFFFAYAFFM	0.361 ± 0.058	0.451 ± 0.015	0.321 ± 0.043	0.488 ± 0.015	0.251 ± 0.0032	0.266 ± 0.026	0.407 ± 0.0093	0.321 ± 0.0039
VCALHSAPLLIF	0.453 ± 0.029	0.484 ± 0.017	0.352 ± 0.034	0.496 ± 0.0065	0.307 ± 0.005	0.362 ± 0.012	0.467 ± 0.00048	0.462 ± 0.023
VCLVLVVVWWSG	0.219 ± 0.0066	0.277 ± 0.028	0.222 ± 0.021	0.338 ± 0.0041	0.1895 ± 0.0012	0.201 ± 0.027	0.313 ± 0.012	0.292 ± 0.024
VCRGWCVVRYIL	0.593 ± 0.015	0.699 ± 0.0099	0.574 ± 0.012	0.7226 ± 0.0024	0.173 ± 0.00096	0.18 ± 0.016	0.259 ± 0.0046	0.281 ± 0.064

Sequence	protein stability index (Saccharomyces cerevisiae [1]; [3])	protein stability index (Saccharomyces cerevisiae [1]; [4])	protein stability index (Saccharomyces cerevisiae [1]; [5])	protein stability index (Saccharomyces cerevisiae [1]; [6])	protein stability index (Saccharomyces cerevisiae [1]; [7])	protein stability index (Saccharomyces cerevisiae [1]; [8])	protein stability index (Saccharomyces cerevisiae [1]; [9])	protein stability index (Saccharomyces cerevisiae [2])
VCVFNLTLVGTH	0.421 ± 0.05	0.462 ± 0.018	0.347 ± 0.027	0.449 ± 0.0089	0.358 ± 0.028	0.343 ± 0.018	0.4341 ± 0.0033	0.366 ± 0.023
VFFFFSLVNFRV	0.546 ± 0.061	0.574 ± 0.041	0.459 ± 0.042	0.606 ± 0.017	0.47 ± 0.05	0.419 ± 0.021	0.549 ± 0.03	0.486 ± 0.041
VFFLFLVFLTVV	0.198 ± 0.059	0.164 ± 0.017	0.23 ± 0.01	0.324 ± 0.018	0.222 ± 0.011	0.195 ± 0.029	0.263 ± 0.0089	0.259 ± 0.01
VFFRCVCCLSVF	0.388 ± 0.029	0.408 ± 0.042	0.327 ± 0.024	0.412 ± 0.014	0.2533 ± 0.00085	0.264 ± 0.015	0.352 ± 0.007	0.307 ± 0.026
VFFVLIFLLFLF	0.438 ± 0.025	0.448 ± 0.03	0.4 ± 0.03	0.46 ± 0.012	0.41 ± 0.0085	0.353 ± 0.05	0.469 ± 0.0008	0.421 ± 0.011
VFGSVAALRLLM	0.666 ± 0.048	0.73216 ± 0.00032	0.6508 ± 0.0024	0.7704 ± 0.003	0.193 ± 0.007	0.208 ± 0.042	0.414 ± 0.036	0.378 ± 0.095
VFLFSWYIFSVF	0.206 ± 0.0065	0.341 ± 0.071	0.234 ± 0.031	0.42493 ± 0.00033	0.1066 ± 0.00012	0.109 ± 0.03	0.169 ± 0.0034	0.184 ± 0.015
VFLRCRSLSMRV	0.475 ± 0.044	0.519 ± 0.014	0.397 ± 0.028	0.5352 ± 0.0026	0.409 ± 0.019	0.389 ± 0.013	0.529 ± 0.012	0.465 ± 0.03
VFMTLHCITIYK	0.452 ± 0.016	0.537 ± 0.068	0.379 ± 0.029	0.519 ± 0.052	0.338 ± 0.0065	0.348 ± 0.051	0.547 ± 0.0084	0.458 ± 0.0029
VFSCFLFLVVLV	0.129 ± 0.048	0.104 ± 0.011	0.205 ± 0.035	0.283 ± 0.023	0.279 ± 0.012	0.169 ± 0.019	0.2247 ± 0.0019	0.242 ± 0.0034
VFVFLFVFLFLL	0.147 ± 0.03	0.138 ± 0.041	0.214 ± 0.047	0.313 ± 0.013	0.397 ± 0.098	0.2 ± 0.038	0.253 ± 0.015	0.177 ± 0.043
VGCHISAFSDLI	0.699 ± 0.022	0.744 ± 0.043	0.66 ± 0.023	0.752 ± 0.011	0.66 ± 0.037	0.665 ± 0.032	0.7489 ± 0.0017	0.762 ± 0.017
VGFIVCFFFSFG	0.334 ± 0.049	0.456 ± 0.0062	0.325 ± 0.033	0.459 ± 0.017	0.3 ± 0.031	0.313 ± 0.026	0.453 ± 0.0084	0.432 ± 0.02
VGIVWELGCWMG	0.365 ± 0.052	0.49 ± 0.03	0.325 ± 0.023	0.543 ± 0.023	0.2794 ± 0.00095	0.303 ± 0.021	0.508 ± 0.0067	0.425 ± 0.019
VGTGVGEGGGVV	0.679 ± 0.029	0.72922 ± 0.00013	0.645 ± 0.016	0.73 ± 0.011	0.654 ± 0.018	0.649 ± 0.013	0.719 ± 0.022	0.711 ± 0.011
VICVVLSKVFLF	0.483 ± 0.054	0.5728 ± 0.0027	0.495 ± 0.027	0.588 ± 0.0071	0.416 ± 0.0083	0.393 ± 0.02	0.483 ± 0.013	0.444 ± 0.014
VIGFGEVWIRCV	0.358 ± 0.018	0.57 ± 0.058	0.435 ± 0.025	0.619 ± 0.023	0.0708 ± 0.013	0.0831 ± 0.01	0.0868 ± 0.013	0.141 ± 0.0034
VILYCSNVAVCS	0.355 ± 0.048	0.42 ± 0.013	0.246 ± 0.019	0.4263 ± 0.0013	0.212 ± 0.004	0.248 ± 0.023	0.399 ± 0.011	0.294 ± 0.0038
VIVKSRTTLYIS	0.49 ± 0.015	0.616 ± 0.0078	0.538 ± 0.013	0.613 ± 0.0096	0.092 ± 0.018	0.107 ± 0.018	0.193 ± 0.023	0.155 ± 0.0099
